Data on 11 proteins can be found in patent publication US20100015650.

The target of the data set is T1, BRB1 tyrosine kinase substrate peptide.
T1 chain: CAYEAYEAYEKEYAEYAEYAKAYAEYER

B1: EphB3 (protein)
chain: CLRKQRHGSDSEYTEKLQQYIAPGMKVYIDPFTYEDPNEAVREFAKEIDVSCVKIEEVIGAGEFGEVCRGRLKQPGRREVFVAIKTLKVGYTERQRRDFLSEASIMGQFDHPNIIRLEGVVTKSRPVMILTEFMENCALDSFLRLNDGQFTVIQLVGMLRGIAAGMKYLSEMNYVHRDLAARNILVNSNLVCKVSDFGLSRFLEDDPSDPTYTSSLGGKIPIRWTAPEAIAYRKFTSASDVWSYGIVMWEVMSYGERPYWDMSNQDVINAVEQDYRLPPPMDCPTALHQLMLDCWVRDRNLRPKFSQIVNTLDKLIRNAASLKVIASAQSGMSQPLLDRTVPDYTTFTTVGDWLDAIKMGRYKESFVSAGFASFDLVAQMTAEDLLRIGVTLAGHQKKILSSIQDMRLQMNQTLPVQV
For B1, the Signal to Noise ratio with BRB1 Peptide (TR-FRET kinase assay; kinase 0.1 nM) stood at 24.7.

B2: EphB4 (protein)
chain: LCLRKQSNGREAEYSDKHGQYLIGHGTKVYIDPFTYEDPNEAVREFAKEIDVSYVKIEEVIGAGEFGEVCRGRLKAPGKKESCVAIKTLKGGYTERQRREFLSEASIMGQFEHPNIIRLEGVVTNSMPVMILTEFMENGALDSFLRLNDGQFTVIQLVGMLRGIASGMRYLAEMSYVHRDLAARNILVNSNLVCKVSDFGLSRFLEENSSDPTYTSSLGGKIPIRWTAPEAIAFRKFTSASDAWSYGIVMWEVMSFGERPYWDMSNQDVINAIEQDYRLPPPPDCPTSLHQLMLDCWQKDRNARPRFPQVVSALDKMIRNPASLKIVARENGGASHPLLDQRQPHYSAFGSVGEWLRAIKMGRYEESFAAAGFGSFELVSQISAEDLLRIGVTLAGHQKKILASVQHMKSQAKPGTPGGTGGPAPQY
With B2, the Signal to Noise ratio with BRB1 Peptide (TR-FRET kinase assay; kinase 0.5 nM) came to 29.8.

B3: EphA3 (protein)
chain: RFCGYKSKHGADEKRLHFGNGHLKLPGLRTYVDPHTYEDPTQAVHEFAKELDATNISIDKVVGAGEFGEVCSGRLKLPSKKEISVAIKTLKVGYTEKQRRDFLGEASIMGQFDHPNIIRLEGVVTKSKPVMIVTEYMENGSLDSFLRKHDAQFTVIQLVGMLRGIASGMKYLSDMGYVHRDLAARNILINSNLVCKVSDFGLSRVLEDDPEAAYTTRGGKIPIRWTSPEAIAYRKFTSASDVWSYGIVLWEVMSYGERPYWEMSNQDVIKAVDEGYRLPPPMDCPAALYQLMLDCWQKDRNNRPKFEQIVSILDKLIRNPGSLKIITSAAARPSNLLLDQSNVDITTFRTTGDWLNGVWTAHCKEIFTGVEYSSCDTIAKISTDDMKKVGVTVVGPQKKIISSIKALETQSKNGPVPV
Turning to B3, the Signal to Noise ratio with BRB1 Peptide (TR-FRET kinase assay; kinase 0.5 nM) was 22.4.

B4: EphA8 (protein)
chain: KKRHCGYSKAFQDSDEEKMHYQNGQAPPPVFLPLHHPPGKLPEPQFYAEPHTYEEPGRAGRSFTREIEASRIHIEKIIGSGDSGEVCYGRLRVPGQRDVPVAIKALKAGYTERQRRDFLSEASIMGQFDHPNIIRLEGVVTRGRLAMIVTEYMENGSLDTFLRTHDGQFTIMQLVGMLRGVGAGMRYLSDLGYVHRDLAARNVLVDSNLVCKVSDFGLSRVLEDDPDAAYTTTGGKIPIRWTAPEAIAFRTFSSASDVWSFGVVMWEVLAYGERPYWNMTNRDVISSVEEGYRLPAPMGCPHALHQLMLDCWHKDRAQRPRFSQIVSVLDALIRSPESLRATATVSRCPPPAFVRSCFDLRGGSGGGGGLTVGDWLDSIRMGRYRDHFAAGGYSSLGMVLRMNAQDVRALGITLMGHQKKILGSIQTMRAQLTSTQGPRRHL
For B4, the Signal to Noise ratio with BRB1 Peptide (TR-FRET kinase assay; kinase 0.25 nM) is 32.3.

B5: EphA5 (protein)
chain: SGSCCECGCGRASSLCAVAHPSLIWRCGYSKAKQDPEEEKMHFHNGHIKLPGVRTYIDPHTYEDPNQAVHEFAKEIEASCITIERVIGAGEFGEVCSGRLKLPGKRELPVAIKTLKVGYTEKQRRDFLGEASIMGQFDHPNIIHLEGVVTKSKPVMIVTEYMENGSLDTFLKKNDGQFTVIQLVGMLRGISAGMKYLSDMGYVHRDLAARNILINSNLVCKVSDFGLSRVLEDDPEAAYTTRGGKIPIRWTAPEAIAFRKFTSASDVWSYGIVMWEVVSYGERPYWEMTNQDVIKAVEEGYRLPSPMDCPAALYQLMLDCWQKERNSRPKFDEIVNMLDKLIRNPSSLKTLVNASCRVSNLLAEHSPLGSGAYRSVGEWLEAIKMGRYTEIFMENGYSSMDAVAQVTLEDLRRLGVTLVGHQKKIMNSLQEMKVQLVNGMVPL
In the case of B5, the Signal to Noise Ratio with BRB1 Peptide (TR-FRET kinase assay; kinase 1 nM) is 35.5.

B6: EphB1 (protein)
chain: SRKRAYSKEAVYSDKLQHYSTGRGSPGMKIYIDPFTYEDPNEAVREFAKEIDVSFVKIEEVIGAGEFGEVYKGRLKLPGKREIYVAIKTLKAGYSEKQRRDFLSEASIMGQFDHPNIIRLEGVVTKSRPVMIITEFMENGALDSFLRQNDGQFTVIQLVGMLRGIAAGMKYLAEMNYVHRDLAARNILVNSNLVCKVSDFGLSRYLQDDTSDPTYTSSLGGKIPVRWTAPEAIAYRKFTSASDVWSYGIVMWEVMSFGERPYWDMSNQDVINAIEQDYRLPPPMDCPAALHQLMLDCWQKDRNSRPRFAEIVNTLDKMIRNPASLKTVATITAVPSQPLLDRSIPDFTAFTTVDDWLSAIKMVQYRDSFLTAGFTSLQLVTQMTSEDLLRIGITLAGHQKKILNSIHSMRVQISQSPTAMA
B6: the Signal to Noise ratio with BRB1 Peptide (TR-FRET kinase assay; kinase 0.5 nM) was determined as 29.9.

B7: EphA6 (protein)
chain: TGRCQWYIKAKMKSEEKRRNHLQNGHLRFPGIKTYIDPDTYEDPSLAVHEFAKEIDPSRIRIERVIGAGEFGEVCSGRLKTPGKREIPVAIKTLKGGHMDRQRRDFLREASIMGQFDHPNIIRLEGVVTKRSFPAIGVEAFCPSFLRAGFLNSIQAPHPVPGGGSLPPRIPAGRPVMIVVEYMENGSLDSFLRKHDGHFTVIQLVGMLRGIASGMKYLSDMGYVHRDLAARNILVNSNLVCKVSDFGLSRVLEDDPEAAYTTTGGKIPIRWTAPEAIAYRKFSSASDAWSYGIVMWEVMSYGERPYWEMSNQDVILSIEEGYRLPAPMGCPASLHQLMLHCWQKERNHRPKFTDIVSFLDKLIRNPSALHTLVEDILVMPESPGEVPEYPLFVTVGDWLDSIKMGQYKNNFVAAGFTTFDLISRMSIDDIRRIGVILIGHQRRIVSSIQTLRLHMMHIQEKGFHV
On to B7, for which the Signal to Noise ratio with BRB1 Peptide (TR-FRET kinase assay; kinase 0.5 nM) came to 5.4.

B8: FGFR2 (protein)
chain: RMKNTTKKPDFSSQPAVHKLTKRIPLRRQVTVSAESSSSMNSNTPLVRITTRLSSTADTPMLAGVSEYELPEDPKWEFPRDKLTLGKPLGEGCFGQVVMAEAVGIDKDKPKEAVTVAVKMLKDDATEKDLSDLVSEMEMMKMIGKHKNIINLLGACTQDGPLYVIVEYASKGNLREYLRARRPPGMEYSYDINRVPEEQMTFKDLVSCTYQLARGMEYLASQKCIHRDLAARNVLVTENNVMKIADFGLARDINNIDYYKKTTNGRLPVKWMAPEALFDRVYTHQSDVWSFGVLMWEIFTLGGSPYPGIPVEELFKLLKEGHRMDKPANCTNELYMMMRDCWHAVPSQRPTFKQLVEDLDRILTLTTNEEYLDLSQPLEQYSPSYPDTRSSCSSGDDSVFSPDPMPYEPCLPQYPHINGSVKT
In the case of B8, the Signal to Noise ratio with BRB1 Peptide (TR-FRET kinase assay; kinase 0.25 nM) came out at 27.1.

B9: ARG (protein)
chain: GQQVGRVGEAPGLQQPQPRGIRGSSAARPSGRRRDPAGRTTETGFNIFTQHDHFASCVEDGFEGDKTGGSSPEALHRPYGCDVEPQALNEAIRWSSKENLLGATESDPNLFVALYDFVASGDNTLSITKGEKLRVLGYNQNGEWSEVRSKNGQGWVPSNYITPVNSLEKHSWYHGPVSRSAAEYLLSSLINGSFLVRESESSPGQLSISLRYEGRVYHYRINTTADGKVYVTAESRFSTLAELVHHHSTVADGLVTTLHYPAPKCNKPTVYGVSPIHDKWEMERTDITMKHKLGGGQYGEVYVGVWKKYSLTVAVKTLKEDTMEVEEFLKEAAVMKEIKHPNLVQLLGVCTLEPPFYIVTEYMPYGNLLDYLRECNREEVTAVVLLYMATQISSAMEYLEKKNFIHRDLAARNCLVGENHVVKVADFGLSRLMTGDTYTAHAGAKFPIKWTAPESLAYNTFSIKSDVWAFGVLLWEIATYGMSPYPGIDLSQVYDLLEKGYRMEQPEGCPPKVYELMRACWKWSPADRPSFAETHQAFETMFHDSSISEEVAEELGRAASSSSVVPYLPRLPILPSKTRTLKKQVENKENIEGAQDATENSASSLAPGFIRGAQASSGSPALPRKQRDKSPSSLLEDAKETCFTRDRKGGFFSSFMKKRNAPTPPKRSSSFREMENQPHKKYELTGNFSSVASLQHADGFSFTPAQQEANLVPPKCYGGSFAQRNLCNDDGGGGGGSGTAGGGWSGITGFFTPRLIKKTLGLRAGKPTASDDTSKPFPRSNSTSSMSSGLPEQDRMAMTLPRNCQRSKLQLERTVSTSSQPEENVDRANDMLPKKSEESAAPSRERPKAKLLPRGATALPLRTPSGDLAITEKDPPGVGVAGVAAAPKGKEKNGGARLGMAGVPEDGEQPGWPSPAKAAPVLPTTHNHKVPVLISPTLKHTPADVQLIGTDSQGNKFKLLSEHQVTSSGDKDRPRRVKPKCAPPPPPVMRLLQHPSICSDPTEEPTALTAGQSTSETQEGGKKAALGAVPISGKAGRPVMPPPQVPLPTSSISPAKMANGTAGTKVALRKTKQAAEKISADKISKEALLECADLLSSALTEPVPNSQLVDTGHQLLDYCSGYVDCIPQTRNKFAFREAVSKLELSLQELQVSSAAAGVPGTNPVLNNLLSCVQEISDVVQR
For the protein B9, the Signal to Noise ratio with BRB1 Peptide (TR-FRET kinase assay; kinase 0.5 nM) is 10.6.

B10: FGFR3 (protein)
chain: RLRSPPKKGLGSPTVHKISRFPLKRQVSLESNASMSSNTPLVRIARLSSGEGPTLANVSELELPADPKWELSRARLTLGKPLGEGCFGQVVMAEAIGIDKDRAAKPVTVAVKMLKDDATDKDLSDLVSEMEMMKMIGKHKNIINLLGACTQGGPLYVLVEYAAKGNLREFLRARRPPGLDYSFDTCKPPEEQLTFKDLVSCAYQVARGMEYLASQKCIHRDLAARNVLVTEDNVMKIADFGLARDVHNLDYYKKTTNGRLPVKWMAPEALFDRVYTHQSDVWSFGVLLWEIFTLGGSPYPGIPVEELFKLLKEGHRMDKPANCTHDLYMIMRECWHAAPSQRPTFKQLVEDLDRVLTVTSTDEYLDLSAPFEQYSPGGQDTPSSSSSGDDSVFAHDLLPPAPPSSGGSRT
Consider B10, for which the Signal to Noise ratio with BRB1 Peptide (TR-FRET kinase assay; kinase 0.25 nM) was determined as 24.4.

B11: EphB2 (protein)
chain: CNRRGFERADSEYTDKLQHYTSGHMTPGMKIYIDPFTYEDPNEAVREFAKEIDISCVKIEQVIGAGEFGEVCSGHLKLPGKREIFVAIKTLKSGYTEKQRRDFLSEASIMGQFDHPNVIHLEGVVTKSTPVMIITEFMENGSLDSFLRQNDGQFTVIQLVGMLRGIAAGMKYLADMNYVHRDLAARNILVNSNLVCKVSDFGLSRFLEDDTSDPTYTSALGGKIPIRWTAPEAIQYRKFTSASDVWSYGIVMWEVMSYGERPYWDMTNQDVINAIEQDYRLPPPMDCPSALHQLMLDCWQKDRNHRPKFGQIVNTLDKMIRNPNSLKAMAPLSSGINLPLLDRTIPDYTSFNTVDEWLEAIKMGQYKESFANAGFTSFDVVSQMMMEDILRVGVTLAGHQKKILNSIQVMRAQMNQIQSVEG
As to B11, the Signal to Noise ratio with BRB1 Peptide (TR-FRET kinase assay; kinase 0.25 nM) came out at 28.8.
